Columns and labels:
[1] = target: FITC-labeled PDIA6 (mouse) (UniProt Q922R8); experiment: MST
[2] = target: His-tagged IRE1α ER luminal domain (IRE1-NLD); experiment: SPR

Kd [1]	Kd [2]	Molecule
20 nM		His-tagged IRE1α ER luminal domain (IRE1-NLD) (domain or fragment)
	22 nM	PDIA6 isolated from mouse liver microsomal fraction (natural protein) LYSSSDDVIELTPSNFNREVIQSDGLWLVEFYAPWCGHCQRLTPEWKKAATALKDVVKVGAVNADKHQSLGGQYGVQGFPTIKIFGANKNKPEDYQGGRTGEAIVDAALSALRQLVKDRLGGRSGGYSSGKQGRGDSSSKKDVVELTDDTFDKNVLDSEDVWMVEFYAPWCGHCKNLEPEWAAAATEVKEQTKGKVKLAAVDATVNQVLASRYGIKGFPTIKIFQKGESPVDYDGGRTRSDIVSRALDLFSDNAPPPELLEIINEDIAKKTCEEHQLCVVAVLPHILDTGAAGRNSYLEVLLKLADKYKKKMWGWLWTEAGAQYELENALGIGGFGYPAMAAINARKMKFALLKGSFSEQGINEFLRELSFGRGSTAPVGGGSFPTITPREPWDGKDGELPVEDDIDLSDVELDDLEKDEL

Reference: article PMC4984425
